# Test results as given in article PMC6116569, “Activity of Vsr endonucleases encoded by Neisseria gonorrhoeae FA1090 is influenced by MutL and MutS proteins” (BMC Microbiology, 2018).
# B1: MutL protein of N. gonorrhoeae FA1090, two-hybrid fusion (mutLNgo gene in pC434, plasmid pAK26) (natural protein)
# chain: MPRIAALPDHLVNQIAAGEVVERPANALKEIVENSIDAGATAVDVELEGGGIRLIRVGDNGGGIHPDDIELALHRHATSKIKTLNDLEHVASMGFRGEGLASIASVSRLTLTSRQEDSSHATQVKAEDGKLSSPTAAAHPVGTTIEAAELFFNTPARRKFLKSENTEYAHCATMLERLALAHPHIAFSLKRDGKQVFKLPAQSLHERIAAIVGDDFQTASLEIDSGNSALRLYGAIAKPTFAKGKTDKQYCFVNHRFVRDKVMLHAVKQAYRDVLHNALTPAFVLFLELPPEAVDVNVHPTKTEIRFRDSRQVHQLVFHTLNKALADTRANLTESVSNAGEVLHDITGVTPAPMPSENDGENLFDSASNHPTGNKPDTRNAFGSSGKTAPMPYQAARAPQQHSLSLRESRAAMDTYAELYKKTDDIDLELSQFEQARFGNMPSETPAHKTDTPLSDGIPSQSELPPLGFAIAQLLGIYILAQAEDSLLLIDMHAAAERVNYEKMKRQRQENGNLQSQHLLIPVTFAASHEECAALADHAETLAGFGLELSDMGGNTLAVRAAPVMLGKSDVVSLARDVLGELAQVGSSQTIASHENRILATMSCHGSIRAGRRLTLPEMNALLRDMENTPRSNQCNHGRPTWVKLTLKELDTLFLRGQ
# B2: MutL protein of N. gonorrhoeae FA1090, His-tagged, purified (plasmid pAK20) (natural protein, UniProt Q5F8M6 1-658, looked up)
# chain: B1 chain
# notes: MutL of Neisseria gonorrhoeae FA1090; mutLNgo gene (1977 bp) amplified from chromosomal DNA with primers MutLfor/MutLNgoR and cloned into the NheI-HindIII sites of pET28a(+); The His-Tag at the amino terminus is encoded by the vector; also called MutLNgo; gonococcal MutL protein; source: E. coli BL21(DE3)pLys (pAK20), autoinduction, purified (Ni-NTA Agarose); not shown: His-Tag, N-terminal, kept
# B3: MutS protein of N. gonorrhoeae FA1090, two-hybrid fusion used with the MutLNgo fusion (plasmid pAK27) (natural protein, UniProt Q5F5J4 1-864, looked up)
# chain: MSKSAVSPMMQQYLGIKAQHTDKLVFYRMGDFYELFLDDAVEAAKLLDITLTTRGQMDGVPIKMAGVPFHAAEQYLARLVKLGKSVAICEQVGEVGAGKGPVERKVVRIVTPGTLTDSALLEDKETNRIVAVSPDKKYIGLAWASLQSGEFKTKLTTADKLNDELARLQAAEILLPDSKNAPQLQTASGVTRLNAWQFAADAGEKLLTEYFGCQDLRGFGLDSKEHAVSIGAAGALLNYIRLTQNLMPQHLDGLSLETDSQYIGMDAATRRNLEITQTLSGKKTPTLFSILDGCATHMGSRLLALWLHHPLRNRAHIRARQEAVTALESQYEPLQCHLKSIADIERIAARIAVGNARPRDLASLRDSLFELAQIDLSATGSSLLETLKAVFPETLPVAETLKAAVMPEPSVWLKDGNVINHGFHPELDELRRIQNHGDEFLLDLEAKERERTGLSTLKVEFNRVHGFYIELSKTQAEQAPADYQRRQTLKNAERFITPELKAFEDKVLTAQDQALALEKQLFDGVLKNLRTALPQLQKAAKAAAALDVLSTFSALAKERNFVRPEFADYPVVHIENGRHPVVEQQVRHFTANHTDLDHKHRLMLLTGPNMGGKSTYMRQVALIVLLAHTGCFVPADAATIGPVDQIFTRIGASDDLASNRSTFMVEMSETAYILHHATEQSIVLMDEVGRGTSTFDGLALAHAIAEHLLQKNKSFSLFATHYFELTYLPEAHAAAVNMHLSALEQGRDIVFLHQIQPGPAGKSYGIAVAKLAGLPVRALKAAQKHLNGLENQAAANRPQLDIFSTMPSEKGDEPNVDCFVDKAEEKHFEGILAAALENLDPDSLTPREALSELYRLKDLCKSVS
# notes: MutS of Neisseria gonorrhoeae FA1090; mutS gene (2595 bp) amplified from chromosomal DNA and cloned into the SalI-BamHI sites of pC434 and pC22; That pAK27 is the pC22 derivative is inferred: it was paired with the pC434-borne mutLNgo gene; also called gonococcal MutS protein; source: bacterial two-hybrid fusion, expressed in E. coli R721; not shown: N-terminal domain of the repressor of phage …
# Experiments:
# [1] = system: MutS (Neisseria gonorrhoeae FA1090); assay: EMSA; conditions: 0.75 uM protein, 1 mM ATP, 10 mM Ca2+, 10 mM Tris-HCl pH 7.5, 10 mM CaCl2, 0.1 mg/ml BSA, 0.15 uM substrate DNA, 0.032 uM competitor DNA, 20 ul, temperature not stated, 5% PAGE with …
# [2] = biological target: V.NgoAXIII endonuclease, two-hybrid fusion (ngoAXIIIV gene in pC22, plasmid pAK24) (N. gonorrhoeae FA1090); assay: two-hybrid; bacterial two-hybrid system (Di Lallo et al.) in E. coli R721 with lacZ as reporter: fusions to the N-terminal domains of the phage P22 and 434 repressors; an interaction represses β-galactosidase; LB with 0.1 mM IPTG, 37 °C; read-out is the ratio of Miller Units to the plasmid-less strain, a ratio below 0.5 counts as interaction
# [3] = biological target: V.NgoAXIV endonuclease, two-hybrid fusion (ngoAXIVV gene in pC22, plasmid pAK25) (N. gonorrhoeae FA1090); assay: as above
# [4] = biological target: T1, MutS protein of N. gonorrhoeae FA1090, His-tagged, purified (plasmid pAK21) (N. gonorrhoeae FA1090, UniProt Q5F5J4 1-864); assay: pull-down; protein affinity chromatography: 250 μg V.NgoAXIII, V.NgoAXIV or MutLNgo coupled to Affi-Gel 10; 250 μg His-tagged MutLNgo or MutS applied in 25 mM Tris pH 7.5, 50 mM NaCl with 2 mM ATP and 5 mM MgCl2; washed with the same buffer, eluted with 250 mM NaCl; fractions blotted with an anti-His-Tag antibody; conditions: both partners purified
# T1 construct: MutS of Neisseria gonorrhoeae FA1090; mutS gene (2595 bp) amplified from chromosomal DNA with primers MutSNheI/MutSNgoR and cloned into the NheI-HindIII sites of pET28a(+); The His-Tag at the amino terminus is encoded by the vector; also called gonococcal MutS protein; source: E. coli BL21(DE3)pLys (pAK21), autoinduction, purified (Ni-NTA Agarose); not shown: His-Tag, N-terminal, kept
# T1 sequence (looked up): B3 chain
# [5] = biological target: T2, MutL protein of N. gonorrhoeae FA1090, two-hybrid fusion (mutLNgo gene in pC434, plasmid pAK26) (N. gonorrhoeae FA1090, UniProt Q5F8M6 1-658); assay: two-hybrid; bacterial two-hybrid system (Di Lallo et al.) in E. coli R721 with lacZ as reporter: fusions to the N-terminal domains of the phage P22 and 434 repressors; an interaction represses β-galactosidase; LB with 0.1 mM IPTG, 37 °C; read-out is the ratio of Miller Units to the plasmid-less strain, a ratio below 0.5 counts as interaction; conditions: partners not purified
# T2 construct: MutL of Neisseria gonorrhoeae FA1090; mutLNgo gene (1977 bp) amplified from chromosomal DNA and cloned into the SalI-BamHI sites of pC434; also called gonococcal MutL protein; source: bacterial two-hybrid fusion, expressed in E. coli R721; not shown: N-terminal domain of the repressor of phage 434 (from the vector pC434), N-terminal, kept
# T2 sequence (looked up): B1 chain
molecule,measurement,setting,value
"T:G mismatch substrate used with MutS (M.NgoA302P-sub or M.NgoA1175P-sub, not specified)",binding signal,[1],90 % bound
B1,ratio of Miller Units (β-galactosidase activity) to the plasmid-less strain,[2],0.18
same,ratio of Miller Units (β-galactosidase activity) to the plasmid-less strain,[3],0.23
B2,binding result,[4],binds
B3,ratio of Miller Units (β-galactosidase activity) to the plasmid-less strain,[5],0.39 ± 0.01
